Test results: patent publication US10632208B2, “Peptide-mediated drug delivery across epithelial barrier” (Purdue Research Foundation, priority 2017, dated 2020)

Legend:
Caco-2 cell monolayers [1] = assay: Transepithelial electrical resistance (TEER) of Caco-2 monolayers on Transwell inserts; format: cell-based, human
Caco-2 cell monolayers [2] = assay: Apical-to-basolateral flux of paracellular marker FD4 through Caco-2 monolayers; format: cell-based, human; conditions: LAP 1 μg/mL, over a 72-h period; TNF-α 10 ng/mL positive control
Method: To determine the effect of LAP on Caco-2 permeability at specified time points (0, 24, 48 and 72 h) following incubation with recombinant purified LAP, 100 μl of FD4 (1 mg/mL in DMEM) was added to the apical side and the fluorescence readings (Em: 485 nm; Ex: 520 nm; Spectramax, Molecular Devices) for the basal medium (100 μl) were measured. Human TNF-α (10 ng/mL, R&D Systems) was added to both apical and basal sides and used as a positive control.

human TNF-α = assay: ELISA of TNF-α in Caco-2 cell supernatants; format: cell-based; conditions: recombinant LAP 1 μg/mL, 8 h
Method: (§1) A semi-quantitative membrane-based RayBio Human Inflammation Antibody Array kit (Ray Biotech) was used to analyze a panel of 40 inflammatory mediators in Caco-2 cell supernatant infected either with the WT or lap^− strain (MOI, ˜50) at 37° C. for 1 h. After killing the extracellular bacteria by gentamicin (50 μg/mL), the Caco-2 cells were incubated for an additional 7 h at 37° C. Recombinant LAP (1 μg/mL) from ClearColi was incubated for 8 h with Caco-2 cells. After immunoblotting, the reaction intensity was quantified using NIH ImageJ software. The data were normalized and expressed as the mean fold changes as a ratio of lap^−/WT±SEM. For the ELISA, Caco-2 cell supernatants were centrifuged (2,000 rpm at 4° C. for 10 min) following treatment as above, and the quantification of TNF-α and IL-6 in was performed using human TNF-α and IL-6 ELISA kits (Ray Biotech) as per manufacturer's instruction. The quantification of TNF-α and IL-6 protein levels was performed in the ileal tissue lysates from mice using mouse TNF-α and IL-6 ELISA kits (Ray Biotech) as per manufacturer's instruction.

IL-6 = assay: ELISA of IL-6 in Caco-2 cell supernatants; format: cell-based, human; conditions: recombinant LAP 1 μg/mL, 8 h
Method: as §1

Hsp60 / IKK-β = target: T1, Hsp60 / IKK-β (Homo sapiens, UniProt P10809); assay: Co-immunoprecipitation of Hsp60 and IKKβ from Caco-2 cell lysates; format: cell-based; conditions: LAP 1 μg/ml, 30 min
T1 construct: endogenous in cells; host or cells: Caco-2 (human colon carcinoma, ATCC HTB37)
Method: Caco-2 cells were treated with or without purified LAP (1 μg/mL) for 30 min, rinsed with cold PBS, and lysed in Nondiet P-40 (NP-40) lysis buffer (20 mM Tris HCl, pH 8,137 mM NaCl, 1% NP-40, 2 mM EDTA). The cell lysates were pre-cleared with 10 μl protein G agarose beads (MicroProtein Technologies) for 1 h and the lysates were incubated with 2 μg of anti-IKKβ, 2 μg of anti-Hsp60, rabbit serum or normal mouse serum overnight at 4° C. The lysates were further mixed with 20 μL protein G agarose beads for 3 h at 4° C. The beads were washed five times with 1 ml NP-40 lysis buffer. The protein precipitates were analyzed by immunoblotting, and the complexes were visualized by chemiluminescence assay.

MLCK = assay: Immunoblot of MLCK and P-MLC in whole-cell Caco-2 lysates; format: cell-based, human; conditions: purified LAP 1 μg/mL, 60 min pi
Method: To extract the proteins from Caco-2 cells, cells were seeded in 6-well plates for 14-21 days. Following treatment, the cells were washed, scraped from the bottom of 6-well plates, suspended in PBS, and pelleted by centrifugation. Total protein from Caco-2 cells was extracted using the M-PER Extraction Kit (Thermo Fisher Scientific). Detergent-insoluble (membrane) and detergent-soluble (cytosolic) proteins were isolated using a Mem-Per Eukaryotic Protein Extraction Kit (Thermo Fisher Scientific) while the cytosolic and nuclear proteins were extracted using NE-PER Extraction Reagent (Thermo Fisher Scientific). To extract proteins from ileal epithelial cells, the epithelial cell fraction from ileal tissues were isolated as described above and the detergent-insoluble and the detergent-soluble proteins were isolated using a Mem-Per Eukaryotic Protein Extraction Kit.
To extract total protein from intact bacterial cells, sample solvent buffer and sonication (3 cycles of 20 min each) were used. […] The protein concentrations were determined by BCA assay (Thermo Fisher Scientific), and separated on SDS-PAGE gels (10-12.5% polyacrylamide) and electro-transferred to polyvinylidene difluoride (PVDF) membrane (Millipore). […] To compare the reaction intensities, the average band densities were determined using Quantity One software (Bio-Rad). […]

T1 sequence (P10809 27-573): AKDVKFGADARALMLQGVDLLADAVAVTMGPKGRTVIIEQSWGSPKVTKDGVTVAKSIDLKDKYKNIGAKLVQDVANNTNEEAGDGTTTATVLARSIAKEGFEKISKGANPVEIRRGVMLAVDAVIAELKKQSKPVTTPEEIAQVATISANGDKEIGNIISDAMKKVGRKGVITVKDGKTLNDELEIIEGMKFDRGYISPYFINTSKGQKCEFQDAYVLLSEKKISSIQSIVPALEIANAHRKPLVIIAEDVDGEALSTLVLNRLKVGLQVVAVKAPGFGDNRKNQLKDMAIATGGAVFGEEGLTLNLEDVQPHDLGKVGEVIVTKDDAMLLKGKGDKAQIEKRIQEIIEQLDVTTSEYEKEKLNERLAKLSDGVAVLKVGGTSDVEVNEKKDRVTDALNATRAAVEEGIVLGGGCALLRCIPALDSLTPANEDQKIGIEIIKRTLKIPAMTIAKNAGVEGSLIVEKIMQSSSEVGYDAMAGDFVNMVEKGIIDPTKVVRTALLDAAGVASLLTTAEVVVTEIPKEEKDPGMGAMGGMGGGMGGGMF

B1: LAP: Listeria adhesion protein, alcohol acetaldehyde dehydrogenase of Listeria monocytogenes, 866 aa, 94 kDa; recombinant, histidine-tagged form SEQ ID NO: 10 (protein)
chain: MAIKENAAQEVLEVQKVIDRLADNGQKALKAFESYNQEQVDNIVHAMALAGLDQHMPLAKLAVEETGRGLYEDKCIKNIFATEYIWNNIKNNKTVGVINEDVQTGVIEIAEPVGVVAGVTPVTNPTSTTLFKAIIAIKTRNPIIFAFHPSAQRCSSAAAKVVYDAAIAAGAPEHCIQWVEKPSLEATKQLMNHDKVALVLATGGAGMVKSAYSTGKPALGVGPGNVPAYIDKTAKIKRSVNDIILSKSFDQGMICASEQAVIVDKEVAKEVKAEMEANKCYFVKGAEFKKLESYVINPEKGTLNPDVVGKSPAWIANQAGFKVPEDTKILVAEIKGVGDKYPLSHEKLSPVLAFIEAANQAEAFDRCEEMLVYGGLGHSAVIHSTDKEVQKAFGIRMKACRIIVNAPSAQGGIGDIYNGFIPSLTLGCGSYGKNSVSQNVSATNLLNVKRIADRRNNMQWFKLPPKIFFEKYSTQYLQKMEGVERVFIVTDPGMGSFKYVDVVIEHLKKRGNDVAYQVFADVEPDPSDVTVYKGAELMKDFKPDTIIALGGGSAMDAAKGMWLFYEHPEASFFGLKQKFLDIRKRTFKYPKLGGKAKFVAIPTTSGTGSEVTPFAVITDKENNIKYPLADYELTPDVAIVDAQYVTTVPAHITADTGMDVLTHAIESYVSVMASDYTRGLSIRAIELVFENLRESVLTGDPDAREKMHNASALAGMAFANAFLGINHSLAHKIGPEFHIPHGRANAILMPHVIRYNALKPKKHALFPRYESFRADEDYARISRIIGFPAATTEEGVKSLVDEIIKLGKDVGIDMSLKGQNVAKKDLDAVVDTLADRAFMDQCTTANPKQPLVSELKEIYLEAYKGV
modifications: Listeria monocytogenes
LAP concentration giving maximum reduction in TEER (Caco-2 cell monolayers [1]; apical treatment, 1-1000 ng/mL, 48-h period): 500 to 1000 ng/mL
reduction in TEER (Caco-2 cell monolayers [1]; purified recombinant LAP added to both the basolateral and apical compartments): 25±2%
reduction in TEER (Caco-2 cell monolayers [1]; purified recombinant LAP added to the apical compartment): 12±1%
reduction in TEER (Caco-2 cell monolayers [1]; purified recombinant LAP added to the basolateral compartment): 27±1%
FD4 permeability (Caco-2 cell monolayers [2]): significant increase in FD4 permeability equivalent to TNF-α
TNF-α production (human TNF-α): significantly higher levels
IL-6 production (IL-6): significantly higher levels
interaction of Hsp60 with IKK-β (Hsp60 / IKK-β): Hsp60 co-precipitation
increase of MLCK protein expression levels (MLCK): 249±9%
